“And” between values parts separate entries of the source, which are not always exact repeats. Identical values can stand only once. Like-named read-outs stand apart in the source and are kept apart here.
What was measured:
[1] = target: HA of A/Hong Kong/68 (H3N2) virus (Influenza A virus A/Hong Kong/68 (H3N2)); test: cell-based or functional assay
[2] = target: HA of A/Brisbane/10/07 (H3N2) virus (Influenza A virus A/Brisbane/10/07 (H3N2)); test: cell-based or functional assay
[3] = target: HA of A/Wisconsin/67/05 (H3N2) virus (Influenza A virus A/Wisconsin/67/05 (H3N2)); test: cell-based or functional assay
[4] = target: purified recombinant HA protein of H1N1 (A/Ohio/07/09) (Influenza A virus A/Ohio/07/09 (H1N1))
[5] = target: purified recombinant HA protein of H1N1 (A/Texas/05/09) (Influenza A virus A/Texas/05/09 (H1N1)); test: SPR, Biacore T200, HA captured via anti-6x his tag antibody, 25 C
[6] = target: purified recombinant HA protein of H1N1 (A/Ohio/07/09) (Influenza A virus A/Ohio/07/09 (H1N1)); test: as above
[7] = target: purified recombinant HA protein of H5N1 (A/Vietnam/1203/04) (Influenza A virus A/Vietnam/1203/04 (H5N1)); test: as above
[8] = target: purified recombinant HA protein of H5N1 (A/Vietnam/1203/04) (Influenza A virus A/Vietnam/1203/04 (H5N1))
[9] = target: purified recombinant HA protein of H1N1 (A/Texas/05/09) (Influenza A virus A/Texas/05/09 (H1N1))

Binder	MN test: lowest antibody concentration at which no virus antigen was detected [1] [µg/mL]	MN test: lowest antibody concentration at which no virus antigen was detected [2] [µg/mL]	MN test: lowest antibody concentration at which no virus antigen was detected [3] [µg/mL]	Kd [4] [nM]	Kd [5]	koff [5]	kon [5]	Kd [6]	koff [6]	kon [6]	Kd [7]	koff [7] [s⁻¹]	Kd [8] [nM]	Kd [9] [nM]
CT164 (antibody, V domains shown) VH: QVQLVQSGVEVKKPGASVKVSCKTSGYPFSTYGVSWVRQAPGQGLEWVGWISGYTGITDYAQKSQGRVTLTTDASTATAFLELRSLRPDDTATYFCARDKVQGRVEAGSGGRHDYWGQGTLVIVSS VL: EVVLTQSPGTLTLPPGDRATLSCRASHSVGSTYIAWFQQKSGQAPRRLIYGASNRATDIPDRFSGSGSGTDFTLTIRRLEPEDSAVYYCQQFSVSPWTFGQGTRVEIKR	1.25	0.625	2.5	–	–	–	–	–	–	–	–	–	–	–
CT166 (antibody, V domains shown) VH: QVQLVQSGAEVKKPGASVKVSCKTSGYSFSTYGVSWVRQAPGQGLEWVGWISGYTGITDYAQKFQGRVTLTTDATTATAFLELRSLRPDDTATYFCARDKVQGRVEVGSGGRHDYWGQGTLVIVSS VL: EVVLTQSPGTLALPPGERATLSCRASHSIGSTYIAWYQQKSGQAPRRLIYGASNRASDIPDRFSGSGSGTDFTLTIRRLEPEDSAVYYCQQFSVSPWTFGQGTRVEIKR	2.5	1.25	5	–	–	–	–	–	–	–	–	–	–	–
CT120 (antibody, V domains shown) VH: QVQLVQSGAEVKMPGSSVKVSCKTSGVFFSSHAISWVRQAPGQGLEWMGGISPMFGTTHYAQKFQGRVTITADQSTTTAYMELTSLTSEDTAVYYCARDGAGSYYPLNWFDPWGQGTLVTVSS VL: EIVLTQSPATLSLSPGERATLSCRASENIWNNLAWYQQKPGQAPRLLISGASTGATGVPSRFRGSGSRTEFTLTISSLQSEDFAIYFCQQYNSWPRTFGPGTKVEIKR	–	–	–	2	1.97 nM and 1.55 nM	0.00119 s⁻¹ and 0.00098 s⁻¹	606000 M⁻¹ s⁻¹ and 632000 M⁻¹ s⁻¹	1.76 nM and 2.24 nM	0.000663 s⁻¹ and 0.000789 s⁻¹	376000 M⁻¹ s⁻¹ and 352000 M⁻¹ s⁻¹	3.74 nM and 4.2 nM	3.88	3.97	1.76
